From patent US20050208041A1 (Bristol-Myers Squibb, published 2005)
Read-outs that look alike come from different tables or passages of the source.

How the values were obtained:
[1] = target: T1, purified recombinant IFNAR-1 extracellular fragment (human, UniProt P17181 28-436); assay: Biacore, maximal association on IFNAR-1 relative to M3K1
T1 construct: extracellular domain; also called soluble IFNAR-1; soluble IFNAR
T1 sequence (looked up): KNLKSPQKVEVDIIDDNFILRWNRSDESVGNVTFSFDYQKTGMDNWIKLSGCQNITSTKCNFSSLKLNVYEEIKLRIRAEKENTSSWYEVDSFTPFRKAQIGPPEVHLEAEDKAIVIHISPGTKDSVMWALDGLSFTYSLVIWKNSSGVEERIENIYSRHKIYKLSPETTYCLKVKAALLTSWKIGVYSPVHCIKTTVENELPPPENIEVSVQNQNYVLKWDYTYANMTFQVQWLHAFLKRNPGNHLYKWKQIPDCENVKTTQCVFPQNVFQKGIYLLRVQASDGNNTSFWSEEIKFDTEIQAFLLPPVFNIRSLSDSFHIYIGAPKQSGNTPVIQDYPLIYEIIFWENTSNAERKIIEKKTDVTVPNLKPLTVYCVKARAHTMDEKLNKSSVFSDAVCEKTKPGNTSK
From the text: (§1) Pools 4 and 11 were selected for further study and the individual antibodies in each pool were produced and expressed separately. The sequences of these individual antibodies were as shown in SEQ ID NO:12 of FIG. 1F and SEQ ID NO: 13 of FIG. 1G. The data is presented as maximal association relative to M3K1. […]

[2] = target: T1, purified recombinant IFNAR-1 …; assay: as above; remark: listed apart in the source
From the text: as §1

[3] = target: T1, purified recombinant IFNAR-1 …; assay: Biacore, antibody on immobilized soluble IFNAR-1, maximal response, mean of four
Procedure: Additional combination variants heavy chain DI M3-B and light chain DI K1-C were also made. These combination variants were also tested for binding to IFNAR-1. […] Binding analysis was done by Biacore, with the antibody bound to immobilized soluble IFNAR-1. Maximal response was determined at two concentrations and values shown are mean of four determinations.

[4] = target: T1, purified recombinant IFNAR-1 …; assay: Biacore, response on IFNAR-1 (flow cell 2) divided by response on anti-human IgG Fc (flow cell 4)
From the text: A series of antibodies were constructed with reduced numbers of potential T-cell epitopes. These included heavy chain variants M3-A and M3-B in which residues were changed in CDR regions and DI M3 in which framework residues were altered. De-immunized light chains were also constructed termed K1-C, K1-D, K1-E and DI K1. The antibodies were expressed and purified before analysis by Biacore. A Biacore chip was used with IFNAR-1 coated on Flow cell 2 at 690 RU and anti-human IgG Fc on flow cell 4 at 5000 RU. Binding of the antibody to IFNAR-1 relative to anti-human IgG Fc was determined by the ratio of response at flow cell 2 divided by flow cell 4 (Fc2/Fc4).

[5] = target: T1, purified recombinant IFNAR-1 …; assay: Biacore, antibody captured on anti-human IgG Fc, soluble IFNAR 25-400 nM, flow cell 2-1 low density capture
[6] = target: T1, purified recombinant IFNAR-1 …; assay: Biacore, antibody captured on anti-human IgG Fc, soluble IFNAR-1 25-400 nM, flow cell 2-1 low density capture
From the text: (§2) The binding affinity of M3K1 was compared to that of H3K1.

[7] = target: T1, purified recombinant IFNAR-1 …; assay: Biacore, antibody captured on anti-human IgG Fc, soluble IFNAR 25-400 nM, flow cell 4-3 higher density capture
[8] = target: T1, purified recombinant IFNAR-1 …; assay: Biacore, antibody captured on anti-human IgG Fc, soluble IFNAR-1 25-400 nM, flow cell 4-3 higher density capture
From the text: as §2

[9] = target: T1, purified recombinant IFNAR-1 …; assay: Biacore, antibody captured on anti-human IgG Fc, soluble IFNAR 25-400 nM, flow cell 2-1 low density capture; Flow cell 2-1, low density capture
From the text: as §2

[10] = target: T2, IFNAR-1 on human cells (human, UniProt P17181 28-557); assay: cell-based or functional assay
T2 sequence (looked up): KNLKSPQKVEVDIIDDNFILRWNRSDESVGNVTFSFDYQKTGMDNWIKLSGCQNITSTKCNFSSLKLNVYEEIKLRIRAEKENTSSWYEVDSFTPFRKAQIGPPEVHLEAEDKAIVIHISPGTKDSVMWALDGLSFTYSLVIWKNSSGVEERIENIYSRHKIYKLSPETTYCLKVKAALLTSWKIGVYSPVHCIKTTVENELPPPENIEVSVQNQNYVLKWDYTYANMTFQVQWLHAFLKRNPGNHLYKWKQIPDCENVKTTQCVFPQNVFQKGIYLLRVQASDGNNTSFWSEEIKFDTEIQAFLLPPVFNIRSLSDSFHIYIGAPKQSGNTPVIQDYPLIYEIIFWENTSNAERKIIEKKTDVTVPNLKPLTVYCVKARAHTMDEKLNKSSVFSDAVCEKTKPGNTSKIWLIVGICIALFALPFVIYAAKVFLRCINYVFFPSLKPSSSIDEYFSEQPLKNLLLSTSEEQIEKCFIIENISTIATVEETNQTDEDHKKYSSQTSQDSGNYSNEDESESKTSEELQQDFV

[11] = target: T1, purified recombinant IFNAR-1 …; assay: Biacore, 200 nM antibody on immobilized soluble IFNAR-1
[12] = target: T1, purified recombinant IFNAR-1 …; assay: Receptor Binding (Biacore), purified recombinant receptor
[13] = target: T2, IFNAR-1 on human cells; assay: Scatchard analysis, 125I-labelled antibody on BALL-1 cells
Procedure: BALL-1 cells, which express IFNAR-1 and IFNAR-2, were used to assess the binding of anti-IFNAR-1 humanized antibodies to cells by Scatchard analysis. The cells were grown in RPMI containing 10% FCS and washed twice with Hanks Balanced Salt Solution (HBSS) at 4 degrees C. […] Millipore plates (MAFB NOB) were coated with 1% nonfat dry milk in water and stored a 4° C. overnight. The plates were washed with binding buffer and 25 ul of unlabeled antibody (1000-fold excess) in TBS binding buffer was added to control wells in a Millipore 96 well glass fiber filter plate (non-specific binding NSB). Twenty-five microliters of buffer alone was added to the maximum binding control well (total binding). Twenty-five microliters of ¹²⁵I-anti-IFNAR-1 antibody and 25 ul of BALL-I cell suspension (4×10⁷ cells/ml) in TBS binding buffer were added. The plates were incubated for 2 hours at 200 RPM on a shaker at 4° C. At the completion of the incubation the Millipore plates were washed twice with 0.2 ml of cold TBS binding buffer containing a final concentration of 0.5 M NaCl. The filters were removed and counted in a gamma counter. Evaluation of equilibrium binding was performed using single site binding parameters with the Prism software (San Diego, Calif.).
Therefore in either a protein-based or cell-based assay, the binding affinity of the antibodies are in the low nM range.

[14] = target: T1, purified recombinant IFNAR-1 …; assay: Biacore, IFNAR-1 extracellular fragment coupled to CM5 chip, antibody 1.75-80 nM
Procedure: Antibodies from clones 64G12, H2K6, H2K1, H3K6, and H3K1 were assayed by Biacore analysis (Biacore AB, Uppsala, Sweden) to determine binding kinetics. Purified recombinant IFNAR-1 extracellular fragment was coupled to the CM5 sensor chip @ 600 RU. Binding was measured by adding antibody at concentrations from 1.75-80 nM at a flow rate of 20 ul/min. The binding curves were fit to a Langmuir binding model using BIAevaluation software (Biacore AB, Uppsala, Sweden).

| % activity relative to M3K1 [1] [%] | % activity relative to M3K1 [2] [%] | % response relative to H3K1 [3] [%] | % activity relative to H3K1 [4] [%] | Fc2/Fc4 [4] | Kd [6] [nM] | koff [6] [s⁻¹] | kon [6] [M⁻¹ s⁻¹] | Kd [8] [nM] | koff [8] [s⁻¹] | kon [8] [M⁻¹ s⁻¹] | further results | Binder |
| --- | --- | --- | --- | --- | --- | --- | --- | --- | --- | --- | --- | --- |
| 100 | 100 | 97 | 140 | 0.42 | 7.09 | 3.79e-05 | 5340 | 7.99 | 4.39e-05 | 5490 | Kd [5]: 7.09 nM; koff [5]: 3.79e-05 s⁻¹; Kd [7]: 7.99 nM; koff [7]: 4.39e-05 s⁻¹; kon [7]: 5490 M⁻¹ s⁻¹; kon [9]: 5340 M⁻¹ s⁻¹ | M3K1 (antibody, V domains shown, also called heavy chain M3 with light chain K1) VH: EVQLLESGGGLVQPGGSLRLSCAFSGFTLSTSGMGIGWVRQAPGKGLEWVAHIWWDDDKYYNPSLKSRFTISRDTSKNTVYLQMNSLRAEDTAVYYCARNYYPYDAWFDYWGQGTLVTVS VL: DIQMTQSPSSLSASVGDRVTITCSASSSINSNHLHWYQQKPGKAPKLLIYRTSILASGVPSRFSGSGSGTSFTLTISSLQPEDFATYYCQQGSNIPFTFGQGTKVEIKR |
| 115 | 138 | 100 | 100 | 0.3 | 6.26 | 5.04e-05 | 8060 | 6.43 | 4.81e-05 | 7480 | Cell Proliferation (Daudi) IC50, cells cultured with interferon α2b [10]: 9.1 nM; ISRE-RG Reporter (U937) IC50, interferon α2b [10]: 21.5 nM; Max Response relative to H3K1 (%) [11]: 100%; Kd [12]: 3.4 nM; Kd [13]: 4 nM; Kd [14]: 3.4 nM | H3K1 (IgG4) (antibody, V domains shown, also called H3K1 standard; humanized anti-IFNAR-1 mAb H3K1) VH: EVQLVESGGGLVQPGGSLRLSCAFSGFTLSTSGMGIGWVRQAPGKGLEWVAHIWWDDDKYYNPSLKSRFTISRDTSKNTVYLQMNSLRAEDTAVYYCARNYYPYDAWFDYWGQGTLVTVS VL: DIQMTQSPSSLSASVGDRVTITCSASSSINSNHLHWYQQKPGKAPKLLIYRTSILASGVPSRFSGSGSGTSFTLTISSLQPEDFATYYCQQGSNIPFTFGQGTKVEIKR |
